Experimental data published in patent publication US10100120B2, “Antibody which specifically binds to human CRTH2” (KYOWA HAKKO KIRIN CO., LTD, priority 2015, dated 2018).
Residue numbers refer to the chain shown, from its start.

Columns and labels:
[1] = target: T1, mutated human CRTH2 with amino acid substitution (Homo sapiens, UniProt Q9Y5Y4, D194A); assay: Epitope analysis using CHO-S cells which express mutated human CRTH2 with amino acid substitution; type: binding; conditions: mutant D194A; antibody 10 μg/mL; relative to wild-type = 100%
T1 construct: inserting genes encoding various mutants with amino acid substitution obtained by deleting termination codons; expressed in transfected cells; host or cells: CHO-S cells (Lifetechnologies), transient (phmAG1-MNLinker vector)
T1 sequence (Q9Y5Y4 1-395 D194A): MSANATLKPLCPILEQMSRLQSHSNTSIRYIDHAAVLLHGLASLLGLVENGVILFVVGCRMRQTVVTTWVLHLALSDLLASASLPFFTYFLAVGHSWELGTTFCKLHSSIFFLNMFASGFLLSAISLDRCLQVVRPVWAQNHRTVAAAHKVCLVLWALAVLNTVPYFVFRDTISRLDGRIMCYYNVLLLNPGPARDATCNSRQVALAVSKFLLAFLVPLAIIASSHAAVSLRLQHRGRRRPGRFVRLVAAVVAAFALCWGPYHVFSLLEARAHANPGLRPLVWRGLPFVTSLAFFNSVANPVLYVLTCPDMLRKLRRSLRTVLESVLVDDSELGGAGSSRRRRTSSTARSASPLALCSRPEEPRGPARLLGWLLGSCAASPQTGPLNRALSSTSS
Outline: (§1)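 CHO-S cells transiently expressing alanine-substituted human CRTH2 extracellular mutants, C-terminally Azami-Green tagged, 24 h post-transfection. Antibodies at 10 μg/mL, 4 °C 1 h, then Alexa647 anti-IgG secondary 4 °C 1 h; flow cytometry on Azami-Green-positive cells. Reactivity = Alexa647 intensity divided by Azami-Green intensity.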

[2] = target: T2, mutated human CRTH2 with amino acid substitution (Homo sapiens, UniProt Q9Y5Y4, G192A); assay: as above; type: binding; conditions: mutant G192A; antibody 10 μg/mL; relative to wild-type = 100%
T2 construct: inserting genes encoding various mutants with amino acid substitution obtained by deleting termination codons; expressed in transfected cells; host or cells: CHO-S cells (Lifetechnologies), transient (phmAG1-MNLinker vector)
T2 sequence (Q9Y5Y4 1-395 G192A): T1 sequence (Q9Y5Y4 1-395 D194A) with G192A, A194D
Outline: as §1

B1: LV0HV1: humanized Lym2 antibody, VL LV0 (SEQ ID NO: 33), VH HV1 (SEQ ID NO: 51) (antibody, V domains shown)
VH: EVQLVESGGGVVQPGRSLRLSCAASGFTFSNYYMAWVRQAPGKGLEWVATISYDGSSTYYRDSVKGRFTISRDNAKNSLYLQMNSLRAEDTATYYCARHRGYYYSGAGYFDYWGQGTMVTVSS
VL: DIVMTQTPLSLPVTPGESASISCRSSQSLEYSDGYTYLEWYLQKPGQSPQVLIYGVSNRFSGVPDRFSGSGSGTDFTLKISRVEAEDVGVYYCFQATHDPLTFGQGTKLEIK
**Q.** How did the “reactivity against cells expressing mutated human CRTH2” value [1] turn out when B1 was run?
**A.** lost

**Q.** What about the “reactivity against cells expressing mutated human CRTH2” value [2] of the same molecule?
**A.** lost
